Experimental data published in US20240091260A1.

Target: PRAME … (ALY) peptide in complex with HLA-A*0201 (HLA-A2) (human)
Assay: cell-based or functional assay

PRAME mTCRCAR (chimeric antigen receptor with an scFv from Pr20, IgG4 hinge, 4-1BB costimulatory and CD3zeta signaling domains), on human T cells
cell death of neuroblastoma cells (SK-N-SH) with CD8+ CAR T cells at 24 hours: 98%
